{"source": "patent US20140242069", "biological_target": "GST-KRT19 fusion protein (UniProt P08727)", "sequence (P08727 whole entry, the tested form may be a part)": "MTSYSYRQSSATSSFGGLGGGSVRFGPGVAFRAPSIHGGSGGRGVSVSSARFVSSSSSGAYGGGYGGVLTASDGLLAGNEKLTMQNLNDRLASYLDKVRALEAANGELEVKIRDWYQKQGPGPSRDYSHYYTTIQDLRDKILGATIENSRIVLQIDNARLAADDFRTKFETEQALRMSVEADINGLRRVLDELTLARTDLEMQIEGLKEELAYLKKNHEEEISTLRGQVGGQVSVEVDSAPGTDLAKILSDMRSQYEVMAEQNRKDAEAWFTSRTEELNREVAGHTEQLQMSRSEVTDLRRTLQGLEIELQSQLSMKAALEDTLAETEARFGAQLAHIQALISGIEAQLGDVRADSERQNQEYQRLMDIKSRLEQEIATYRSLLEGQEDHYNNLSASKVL"}
{"substance": "HA-Akt protein", "values": [{"measurement": "in vitro kinase assay ([gamma-32P]ATP, SDS-PAGE, autoradiography)", "value": "Akt mediated Ser35 phosphorylation of KRT"}]}
